Measurements taken from US20190374606A1.

Key:
TrkC (NIH-TrkC cells) [1] = experiment: cell-based or functional assay
TrkC (NIH-TrkC cells) [2] = experiment: flow cytometry competition on NIH-TrkC cells; 20 nM Biotin-NT3 tracer, 200 nM unlabeled competitor; value is the Biotin-NT3 signal remaining
TrkC (NIH-TrkC cells) [3] = experiment: flow cytometry competition on NIH-TrkC cells; 20 nM Biotin-NT3 tracer, 200 nM unlabeled competitor; value is the Biotin-NT3 binding remaining
TrkA (NIH-TrkA cells) [4] = experiment: flow cytometry competition on NIH-TrkA cells; 20 nM Biotin-NT3 tracer, 3-fold excess unlabeled competitor; value is the Biotin-NT3 signal remaining
TrkA (NIH-TrkA cells) [5] = experiment: flow cytometry competition on NIH-TrkA cells; 20 nM Biotin-NT3 tracer, 3-fold excess unlabeled competitor; value is the Biotin-NT3 binding remaining
p75 (NIH-p75 cells) [6] = experiment: flow cytometry (fluorescent avidin) on NIH-p75 cells; 20 nM Biotin-NT3, no competitor
TrkC (NIH-TrkC cells) [7] = experiment: flow cytometry (fluorescent avidin) on NIH-TrkC cells; 20 nM Biotin-NT3, no competitor
TrkA (NIH-TrkA cells) [8] = experiment: flow cytometry (fluorescent avidin) on NIH-TrkA cells; 20 nM Biotin-NT3, no competitor
p75 (NIH-p75 cells) [9] = experiment: flow cytometry competition on NIH-p75 cells; 20 nM Biotin-NT3 tracer, 200 nM unlabeled competitor; value is the Biotin-NT3 signal remaining
p75 (NIH-p75 cells) [10] = experiment: flow cytometry competition on NIH-p75 cells; 20 nM Biotin-NT3 tracer, 200 nM unlabeled competitor; value is the Biotin-NT3 binding remaining

NIH-TrkC MCF (TrkC (NIH-TrkC cells) [2])	% of maximal binding to TrkC (TrkC (NIH-TrkC cells) [3])	NIH-TrkA MCF (TrkA (NIH-TrkA cells) [4])	% of maximal binding to TrkA (TrkA (NIH-TrkA cells) [5])	NIH-p75 MCF (p75 (NIH-p75 cells) [6])	NIH-TrkC MCF (TrkC (NIH-TrkC cells) [7])	NIH-TrkA MCF (TrkA (NIH-TrkA cells) [8])	NIH-p75 MCF (p75 (NIH-p75 cells) [9])	% of maximal binding to p75 (p75 (NIH-p75 cells) [10])	Binder	% survival at 0.1 nM, TrkC-expressing cells in serum free media (TrkC (NIH-TrkC cells) [1])
25	18%	20	36%	–	–	–	–	–	Wild type NT-3 (Neurotrophin 3, mature form) (ligand) YAEHKSHRGEYSVCDSESLWVTDKSSAIDIRGHQVTVLGEIKTGNSPVKQYFYETRCKEARPVKNGCRGIDDKHWNSQCKTSQTYVRALTSENNKLVGWRWIRIDTSCVCALSRKIGRT	34%
–	–	–	–	76	93	38	–	–	Biotin-NT-3 (wild type NT-3 covalently linked to biotin) (ligand, biotin, site not given) YAEHKSHRGEYSVCDSESLWVTDKSSAIDIRGHQVTVLGEIKTGNSPVKQYFYETRCKEARPVKNGCRGIDDKHWNSQCKTSQTYVRALTSENNKLVGWRWIRIDTSCVCALSRKIGRT	–
–	13%	16	–	–	–	–	69	89%	NT-3 mutant (SEQ ID NO: 23) (ligand) YAEHKSHRGEYSVCASESLWVTDKSSAIDIRGHQVTVLGEIKTGNSPVKQYFYETRCKEARPVKNGCRGIDDKHWNSQCKTSQTYVRALTSENNKLVGWRWIRIDTSCVCALSAAIGRT	–
